T1: hsGLUT4 L296A (human, UniProt P14672 1-509)
T1 sequence: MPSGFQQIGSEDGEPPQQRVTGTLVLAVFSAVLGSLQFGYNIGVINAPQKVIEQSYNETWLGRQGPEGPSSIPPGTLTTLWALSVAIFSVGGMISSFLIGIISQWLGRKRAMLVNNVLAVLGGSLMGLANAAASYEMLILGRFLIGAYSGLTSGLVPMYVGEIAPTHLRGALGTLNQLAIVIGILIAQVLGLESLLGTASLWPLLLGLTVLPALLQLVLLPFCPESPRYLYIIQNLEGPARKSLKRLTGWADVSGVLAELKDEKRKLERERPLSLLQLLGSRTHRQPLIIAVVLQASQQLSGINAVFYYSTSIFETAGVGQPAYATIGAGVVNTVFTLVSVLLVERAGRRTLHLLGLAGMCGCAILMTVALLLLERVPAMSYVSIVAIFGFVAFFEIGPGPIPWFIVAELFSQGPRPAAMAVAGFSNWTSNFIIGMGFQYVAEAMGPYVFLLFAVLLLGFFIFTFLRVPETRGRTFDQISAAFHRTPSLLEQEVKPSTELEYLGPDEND

T2: hsGLUT4 G414A (human, UniProt P14672 1-509)
T2 sequence: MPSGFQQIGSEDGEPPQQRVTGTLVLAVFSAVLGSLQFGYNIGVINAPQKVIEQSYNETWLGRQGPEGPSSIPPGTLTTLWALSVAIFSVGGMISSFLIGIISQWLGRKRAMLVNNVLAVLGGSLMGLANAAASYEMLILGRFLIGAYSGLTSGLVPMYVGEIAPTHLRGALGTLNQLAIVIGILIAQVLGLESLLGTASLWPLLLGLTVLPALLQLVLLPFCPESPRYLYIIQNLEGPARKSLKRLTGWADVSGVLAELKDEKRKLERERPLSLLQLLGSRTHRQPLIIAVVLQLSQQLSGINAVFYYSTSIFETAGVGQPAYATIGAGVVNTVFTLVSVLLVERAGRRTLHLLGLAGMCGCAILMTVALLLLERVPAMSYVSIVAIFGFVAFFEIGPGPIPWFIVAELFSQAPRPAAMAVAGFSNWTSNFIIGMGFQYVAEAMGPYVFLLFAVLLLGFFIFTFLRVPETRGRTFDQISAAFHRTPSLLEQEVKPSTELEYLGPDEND

T3: mouse GLUT1 (mmGLUT1) (mouse, UniProt P17809 1-492)
T3 construct: whole, on cells
T3 sequence (looked up): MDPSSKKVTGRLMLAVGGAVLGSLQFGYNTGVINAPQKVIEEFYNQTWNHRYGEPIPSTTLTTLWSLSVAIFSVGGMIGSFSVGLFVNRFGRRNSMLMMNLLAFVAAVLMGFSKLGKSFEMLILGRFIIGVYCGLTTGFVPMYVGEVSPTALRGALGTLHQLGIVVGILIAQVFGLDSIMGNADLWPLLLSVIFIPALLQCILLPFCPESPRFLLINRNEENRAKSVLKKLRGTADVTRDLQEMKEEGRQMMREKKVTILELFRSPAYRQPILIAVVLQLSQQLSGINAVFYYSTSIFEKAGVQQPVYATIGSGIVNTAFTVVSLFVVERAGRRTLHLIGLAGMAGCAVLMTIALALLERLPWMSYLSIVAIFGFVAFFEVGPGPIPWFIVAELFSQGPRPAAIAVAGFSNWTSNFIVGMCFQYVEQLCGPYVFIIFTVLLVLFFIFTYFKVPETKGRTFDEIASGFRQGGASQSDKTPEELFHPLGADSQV

T4: human GLUT3 (hsGLUT3) (human, UniProt P11169 1-496)
T4 construct: whole, on cells
T4 sequence (looked up): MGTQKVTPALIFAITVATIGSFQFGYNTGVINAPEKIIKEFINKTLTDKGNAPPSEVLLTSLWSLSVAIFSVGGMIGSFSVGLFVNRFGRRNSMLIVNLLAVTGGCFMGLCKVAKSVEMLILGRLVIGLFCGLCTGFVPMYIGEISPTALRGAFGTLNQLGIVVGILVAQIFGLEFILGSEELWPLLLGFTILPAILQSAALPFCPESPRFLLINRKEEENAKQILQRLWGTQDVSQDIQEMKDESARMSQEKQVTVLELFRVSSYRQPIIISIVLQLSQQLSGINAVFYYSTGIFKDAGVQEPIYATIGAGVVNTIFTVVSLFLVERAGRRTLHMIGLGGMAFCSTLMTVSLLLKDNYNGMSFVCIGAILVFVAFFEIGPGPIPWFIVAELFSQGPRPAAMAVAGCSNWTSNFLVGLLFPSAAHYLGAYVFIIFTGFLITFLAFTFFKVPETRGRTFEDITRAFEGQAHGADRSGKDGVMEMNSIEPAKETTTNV


Tests used:
[1] = biological target: T1, hsGLUT4 L296A; assay: flow cytometry, alanine-scan library in HEK-293T
Experimental: (§1) Because of the state-dependence of the isolated MAbs, we next wished to understand the mechanism by which each MAb could recognize GLUT4 in its different conformations. The residues required for binding of each MAb were determined using shotgun mutagenesis comprehensive alanine scanning (Davidson E & Doranz B J (2014) A High-Throughput Shotgun Mutagenesis Approach to Mapping B-cell Antibody Epitopes. Immunology, which is hereby incorporated by reference in its entirety). All residues of hsGLUT4 were individually mutated to alanine, with existing alanines changed to serines. Mutations were obtained for 508 of the 509 residues of GLUT4 (excluding the initiating methionine). The entire mutation library was transfected into human HEK-293T cells in a 384-well array format (one clone per well) and assessed for immunoreactivity using high-throughput flow cytometry.
(§2) HEK-293T cells were transfected by CaPO₄ with plasmids in 6-well culture plates (Falcon) at 750,000 cells/well. At 48 hours post transfection, cells were stained with anti-V5 and anti-GLUT4 MAbs (purified scFv, 2 μg/ml) followed by biotinylated goat anti-mouse or human antibody (1:500) and streptavidin-PerCP (1:500). Fluorescence was detected using an Intellicyt high-throughput flow cytometer (HTFC; Intellicyt, Albuquerque, N. Mex.). For cell permeabilization, cells were treated with saponin at 0.1% in PBS for 20 minutes. To discriminate intact (live) and permeabilized (dead) cells without the use of detergent, propidium iodide (PI) was added to HEK-293T cells at 1 ug/ml just prior to flow cytometry. Where indicated, cytochalasin B (Sigma) was used at a final concentration of 10 uM and phloretin (Sigma) was used at a final concentration of 100 uM, each added in 10% NGS for 30 minutes prior to antibody staining as well as included with the primary antibody.

[2] = biological target: T2, hsGLUT4 G414A; assay: flow cytometry, alanine-scan library in HEK-293T
Experimental: as §1, §2

[3] = biological target: T3, mouse GLUT1 (mmGLUT1); assay: flow cytometry, transfected HEK-293T
Experimental: as §2

[4] = biological target: T4, human GLUT3 (hsGLUT3); assay: flow cytometry, transfected HEK-293T
Experimental: as §2

| Molecule | % of binding to wild type GLUT4 [1] | % of binding to wild type GLUT4 [2] | binding result [3] | binding result [4] |
| --- | --- | --- | --- | --- |
| 1F8 (antibody) | 105% | 78% |  |  |
| AB105 (Fc fusion, Bivalent scFv-Fc; also called MAb AB105; not shown: Fc fragment of human IgG1, cloned in frame with the scFv) scFv: ALTQPSSVSANPGETVEITCSGDSSYYGWYQQKSPGSAPVTVIYANTNRPSDIPSRFSGSASGSTATLTITGVQAEDEAVYYCGSADSTYAGIFGAGTTLTVLGQSSRSSGGGGSSGGGGSAVTLDESGGGLQTPGGALSLICKASGFTFSSYTMNWVRQAPGKGLEWVGVISNSGRTTNYGAAVQGRATISRDNGQSTVRLQLNNLRAEDTGTYYCAKSSASASCAWWAGRSYPCSANRIDAWGHGTEVIVSS |  |  | no binding (tested: 2 µg/ml) | no binding (tested: 2 µg/ml) |
| AB111 (Fc fusion, Bivalent scFv-Fc; also called MAb AB111; not shown: Fc fragment of human IgG1, cloned in frame with the scFv) scFv: ALTQPSSVSANPGETVKITCSGSGSWYGWFQQKSPGSAPVTVIYSNDKRPSDIPSRFSGSKSGSTSTLTITGVQVEDEAVYYCGNWDIFGAGTTLTVLGQSSRSSGGGGSSGGGGSAVTLDESGGGLQTPGGALSLVCKASGFTFSSHGMGWVRQAPGKGLEWVASISTGRYTFYAPAVKGRATISRDNGQSTVRLQLNNLRAEDTATYYCTKCAGLNGCGGGEIDAWGHGTEVIVSS | 144% | 109% | no binding (tested: 2 µg/ml) | no binding (tested: 2 µg/ml) |
| AB108 (Fc fusion, Bivalent scFv-Fc; also called MAb AB108; not shown: Fc fragment of human IgG1, cloned in frame with the scFv) scFv: ALTQPSSVSANLGGTVKITCSGSSGSYGWYQQKAPGSAPVTLIYRNDKRPSDIPSRFSGSESGSTGTLTITGVQAEDEAVYFCGGYDSSAGYAAFGAGTTLTVLGQSSRSSGGGGSSGGGGSAVTLDESGGGLQTPGGALSLVCKASGFTFSSHGMGWVRQAPGKGLEWVGSISTGRYTFYAPAVKGRATISRDNGQSTLRLQLNNLRAEDTGTYYCTKCAGLNGCGGGEIDAWGHGTEVIVSS | 72% | 80% | no binding (tested: 2 µg/ml) | no binding (tested: 2 µg/ml) |
| AB101 (scFv, Chicken-derived clone used as a control; the four lead clones were tested as scFv-human IgG1 Fc; also called MAb AB101) scFv: ALTQPSSVSANPGETVKITCSGSSNSYGWYQQKSPGSAPVTVIYYNDKRPSDIPSRFSGSKSDSTHTLTITGVRAEDEAVYFCGSYDSTYVGIFGAGTTLTVLGQSSRSSGGGGSSGGGGSAVTLDESGGGLQTPGGTLSLVCKASGFTFSSNAMGWVRQAPGKGLEWVAGISSDGRYTKYGSAVKGRATISRDNGQSTVRLQLNNLRAEDTGTYFCAKAFGNNYRRIYAGQIDAWGHGTEVIVSS | 90% | 83% |  |  |

Source: patent US20210238276A1 (INTEGRAL MOLECULAR, published 2021)
